We go through 1 protein from publication PMC7568252, “Recombinant expression of an L‐amino acid oxidase from the fungus Hebeloma cylindrosporum in Pichia pastoris including fermentation” (MicrobiologyOpen, 2020).

Holding throughout (assay): purified protein
Common to all, as to details: untreated (not acid-activated) enzyme, 50 mM TEA/HCl pH 7.0, 30°C

Substrate in data set [1]: COC(=O)[C@@H](N)CC(C)C
Substrate in data set [2]: CC(C)C[C@H](N)C(=O)O
Substrate in data set [3]: N[C@@H](Cc1ccccc1)C(=O)O
Substrate in data set [4]: CSCC[C@H](N)C(=O)O
Substrate in data set [5]: NC(=O)CC[C@H](N)C(=O)O

B1: 9-hcLAAO4 (9His-hcLAAO4) (Hebeloma cylindrosporum) (protein)
chain: ADTTSVPFDAESRDQIFQHHARSVISGYTNTLGEKNISVPSSPPGGERVGILGAGIGGLYSALILQSLDVPFEIIEASNRVGGRLFTHKFPNGGKYDYYDVGAMRYPLPKSDDKGNYQPGVMQRVGQLFTYLGMHKQLIPYYFKSNKSPGFQYFNGVRARIGEGSSFDAPALGINSSLIDIGVTKIVNDAVGPFAQALFDDLQKHTTTGWDDMMKNDAYSTRSYFSFKYLPSPSFGLPSEHFSTRVINWLETFDKSTGWYDRGLTETVLEAIAFGEVGDGEVDWRCIDGGSHVLPDTIAAFLHKKGGNAFVMNASVTAIGLENPNKEDSPMVVVAGGQKRKYSHVISTLPLPVLRTVDLKNSKLDIVQSNALRKLQYGPSIKIGILFKEPWWTTGQDKNGEKFDLVGGQSYTDLPIRTVVYPSYGVNTNAPSNTLIASYCWTNDAERMGSLIGTGKKTYEEQLEHLVLSNLAAVHNTDYQYLKDRLVDVHSWDWNHNPLTMGAFAFFGPGDFQDLYTSLNRPAANGKLHFAGEALSVRHAWVVGALDSAWRAVYNYLYVTDPAKLPKFFELWGKNAEWFEQPGDGKEPNSDNSLLEKFVRRTHGTVSV
A word on the Km: it is the concentration of substrate that gives half-maximal velocity. By Vmax is commonly meant the top rate of the reaction or transport when substrate is in excess. Turning to B1, the Michaelis constant (Km) was found to be 3010 ± 680 µM in the data set “purified protein [1]”; 40 ± 40 µM in the data set “purified protein [2]”; 70 ± 70 µM in “purified protein [3]”; 160 ± 100 µM in “purified protein [4]”; 510 ± 110 µM in “purified protein [5]”. Moreover, the maximal velocity (Vmax) in “purified protein [1]” is 8.41 µmol/min/mg; in the data set “purified protein [2]”, 7.67 µmol/min/mg; in the data set “purified protein [3]”, 3.25 µmol/min/mg; in “purified protein [4]”, 5.98 µmol/min/mg; in the data set “purified protein [5]”, 8.87 µmol/min/mg.
